Numbering of substitutions follows the chain as printed. In names and notes the source's numbering stands.
B1: F124H: NTR mutant, phenylalanine 124 to histidine (protein)
chain: MDIISVALKRHSTKAFDASKKLTPEQAEQIKTLLQYSPSSTNSQPWHFIVASTEEGKARVAKSAAGNYVFNERKMLDASHVVVFCAKTAMDDVWLKLVVDQEDADGRFATPEAKAANDKGRKFHADMHRKDLHDDAEWMAKQVYLNVGNFLLGVAALGLDAVPIEGFDAAILDAEFGLKEKGYTSLVVVPVGHHSVEDFNATLPKSRLPQNITLTEV
B2: F124K: NTR mutant, phenylalanine 124 to lysine (protein)
chain: B1 chain with H124K
B3: Y68G: NTR mutant, tyrosine 68 to glycine (protein)
chain: B1 chain with Y68G, H124F
B4: Wild type: wild-type E. coli nitroreductase (NTR) encoded by the NfsB gene, SEQ ID NO:1 (protein, listed as Escherichia coli)
chain: B1 chain with H124F
B5: F124N (protein)
chain: B1 chain with H124N
B6: N71S F124K: NTR double mutant, asparagine 71 to serine combined with phenylalanine 124 to lysine (protein)
chain: B1 chain with N71S, H124K

Tested on: not listed separately
Experiment: Steady state kinetics of purified NTR, variable substrate CB1954
Assay type: biochemical
Settings: second substrate CB1954; nucleotide NADH
Procedure: (§1) Wild type NTR and selected mutants were purified as described by Lovering et al., 2001. Steady state kinetic studies were carried out by monitoring the disappearance of nitrofurazone ( ? =12,960, Zenno, et al., 1994) and nitrofurantoin ( ? =12,020, McOsker, et al., 1992) at 420 nm or the disappearance of reduced benzoquinone ( ? =18,5000), 2-nitrofuran ( ? =10,250, McOsker, et al., 1992), 2-nitrobenzamide ( ? =9,750, McOsker, et al., 1992) and 4 nitrobenzamide ( ? =9,720, McOsker, et al., 1992) at 300 nm. The formation of the 4 hydroxylamine product of CB1954 reduction was monitored at 420 nm ( ? =7900, Richard Knox, personal communication).
(§2) All reactions were performed in quartz cuvettes with either a 0.1-, 0.5-, or 1-cm pathlength. In all cases the reaction was initiated by the addition of a small amount of cold enzyme solution to the reaction mix. Assays were performed in 10 mM Tris HCL pH 7.0. The temperature of each reaction was maintained at 25° C. by means of a circulating water bath. All substrates examined were dissolved in DMSO, with the final concentration of organic solvent not exceeding 4% (v/v), concentrations>5% (v/v) give definable enzyme inhibition. In all assay the final DMSO concentration was at 4%. All steady state data were collected in an aerobic environment. Kinetic data were collected at concentration ranges extending from 0.1 of Km to the maximum possible concentration permitted by substrate solubility or optical absorbance. In all cases maximum substrate concentrations exceeded 5×Km. All data was analysed using the commercial package Sigma Plot™ and fit with non-linear regression to a rectangular hyperbola of the form: y=ax/b+x

| Molecule | kinetic parameters compared with wild type |
| --- | --- |
| B1 | significant improvement in kcat/Km for both nucleotide and second substrate |
| B2 | significant improvement in kcat/Km for both nucleotide and second substrate |
| B3 | large improvement in catalytic activity vs. second substrate but not in kcat/Km |

Same assay, conditions: variable substrate CB1954, fixed substrate NADH

| Molecule | Km [µM] | kcat [min⁻¹] |
| --- | --- | --- |
| B1 | 526 ± 10 | 356 ± 35 |
| B2 | 371 ± 12 | 343 ± 43 |
| B3 | 1840 ± 44 | 690 ± 54 |
| B4 | 852 ± 8 | 342 ± 25 |

Tested on: UT5600 cells (NTR−) lysogens
Experiment: Survival curve (colony count) IC50 of CB1954 in NTR-expressing lysogens
Assay type: cell-based, E. coli
Settings: concentration of CB1954 giving 50% reduction in colony number after 36h growth; lysogen expressing the named NTR
Procedure: To quantify the improvement in NTR activity in the clones in a less subjective way, a few clones were selected for further study by determining their survival curves. The lysogens were grown overnight in LB +kanamycin and diluted to approximately 1 cell per μl based on the OD. In duplicate, 100 μl diluted cells were plated into Tris-buffered LB plates containing kanamycin, IPTG and 0-400 μM CB1954. After 36h growth the number of colonies on each plate were counted and expressed as a percentage of the number present on the plates with no CB1954. Survival curves showing % survival versus concentration of CB 1954 were plotted (see examples in FIG. 7) and the IC50 determined as the concentration of CB 1954 which kills gives a 50% reduction in colony number (Table 3 and FIG. 8). A few clones containing mutations resulting in an enhanced sensitivity to CB 1954 were selected for further study.

| Molecule | IC50 [µM] |
| --- | --- |
| B5 | 21 |
| B6 | 16 |
| B1 | 41 |
| B2 | 23 |
| B3 | 43 |
| B4 | 118 |

Tested on: not listed separately
Experiment: Steady state kinetics of purified NTR, variable substrate nitrofurazone
Assay type: biochemical
Settings: fixed substrate NADH
Procedure: as §1, §2

| Molecule | Km [µM] | kcat [min⁻¹] |
| --- | --- | --- |
| B1 | 104 ± 10 | 643 ± 16 |
| B2 | 53 ± 5 | 758 ± 15 |
| B3 | 699 ± 24 | 3541 ± 24 |
| B4 | 157 ± 4 | 683 ± 3 |

Tested on: not given
Experiment: not given
Settings: nitrofurazone and nitrofurantoin as substrates; cited from earlier work

| Molecule | nitroreductase activity compared with wild-type |
| --- | --- |
| B1 | approximately double the wild-type activity |

Tested on: HeLa cells
Experiment: CB1954 sensitisation of HeLa cells after adenoviral NTR expression (MTS viability)
Assay type: cell-based, human
Settings: range of MOIs, 0-50 μM CB1954, 5 hour exposure, MTS assay
Procedure: Sensitisation of HeLa cells to CB1954 was assayed using the following protocol. Cells were infected with NTR-expressing viruses in suspension (2 hours) at a range of MOIs prior to plating into microtitre plates (10^4 cells/well). After a 24 hour expression period, CB1954 was applied at a range of concentrations (0-50 μM) and after a 5 hour exposure to the prodrug, cell viability was assessed using the Promega MTS cell substrate killing assay (2-3 hour incubation before plate reading at OD450 nm). […] Adenovirus titreing by plaque formation on helper cells is however an error-prone process. To correct for this, experiments were performed with multiple independent titred preparations of each virus.
The titres of these mixes were assumed to be the means of the respective experimentally determined titres. For western blot analysis of NTR expression for normalisation purposes, whole cell extracts were resolved by SDS-PAGE on an 11% separation gel and blotted onto a nitrocellulose membrane. NTR was detected using a sheep anti-NTR serum (1:1000 diluted), donkey anti-sheep IgG labelled with HRP (horseradish peroxidase) and SuperSignal West Pico Chemiluminescence substrate (Pierce), analysed with an Alpha Innotech Imager Model #2.3.1. The relative loading of each well was determined by Coomassie blue staining of the gel post transfer.

| Molecule | sensitisation of HeLa cells to CB1954 killing compared with WT NTR |
| --- | --- |
| B5 | more extensive cell killing than that caused by expression of the WT enzyme |
| B6 | more extensive cell killing than that caused by expression of the WT enzyme |

Tested on: not listed separately
Experiment: Steady state kinetics of purified NTR, variable substrate NADH
Assay type: biochemical
Settings: fixed substrate nitrofurazone
Procedure: as §1, §2

| Molecule | kcat [min⁻¹] |
| --- | --- |
| B1 | 619 ± 13 |
| B2 | 723 ± 9 |
| B3 | 3286 ± 33 |
| B4 | 657 ± 23 |

Same assay, conditions: fixed substrate nitrofurazone, 10 mM Tris HCl pH 7.0, 25° C., 4% DMSO

| Molecule | Km [µM] |
| --- | --- |
| B1 | 3 ± 0.4 |
| B2 | 1 ± 0.2 |
| B3 | 22 ± 1 |
| B4 | 7 ± 1 |

Tested on: UT5600 cells (NTR−) lysogens
Experiment: Replica-plate screening of mutant NTR-expressing lysogens on increasing CB1954 (growth score)
Assay type: cell-based, E. coli
Set-up: key to Score: 0: Good growth on all concentrations of CB 1954 = vector; Good growth on 100 and 200, faint on 300, ring of growth on 400 μM; Good growth on 100 and 200, ring growth on 300, none or very faint on 400 μM; Good growth on 100, faint to good on 200, none or very faint on 300 and 400 μM; 4: Good growth on 100 μM, none to ring growth on 200 μM = wild type; Good growth on 50 μM, ring on 100 μM, none on 200, 300 or 400 μM; 6: Faint growth on 50 μM, ring on 100 μM; 7: Good growth on 50 μM, none on 100 μM; 8: Ring growth on 50 μM, none on 100 μM; 9: None or very faint growth on 50 μM, none on 100 μM; 10: None or ring growth on 35 μM
Settings: CB1954
Procedure: The ligation mix was packaged (Stratagene) into lambda bacteriophage particles that were used to infect UT5600 cells (NTR ^−). As a control wild type NTR was also cloned into this vector (JG16C2). Kanamycin resistant lysogens were selected on agar plates ([…] kanamycin) then individually grown overnight in a well of a 96-well plate in LB+Kanamycin. The clones were replica plated on to a series of plates containing Tris-buffered (50 mM, pH 7.5) LB agar with kanamycin, IPTG (0.1 mM) and CB1954 at a concentration of 0, 25, 35, 50, 100, 200, 300 or 400 μM (see FIG. 3). […]

| Molecule | nitroreductase activity with CB1954 compared with wild-type |
| --- | --- |
| B5 | substantially greater activity with CB 1954 than the wild-type |
| B1 | substantially greater activity with CB 1954 than the wild-type |
| B2 | substantially greater activity with CB 1954 than the wild-type |

Same assay, conditions: growth of lysogens on agar with kanamycin, IPTG and 0-400 μM CB1954; wild type = 4, higher = more sensitive

| Molecule | Score |
| --- | --- |
| B5 | 8-10 |
| B6 | 9 |
| B1 | 7-9 |
| B2 | 8-10 |
| B3 | 7 |
| B4 | 4 |

From US20050013808A1, “Nitroreductase enzymes” (priority 2001, published 2005)
